According to publication PMC9352680, “A comprehensive thermodynamic model for RNA binding by the Saccharomyces cerevisiae Pumilio protein PUF4”:
Substitutions are numbered along the chain they refer to. Names and notes keep the numbering of the source.

Target: T1, PUF4 RNA-binding domain (Saccharomyces cerevisiae, UniProt P25339 537-888)
T1 sequence: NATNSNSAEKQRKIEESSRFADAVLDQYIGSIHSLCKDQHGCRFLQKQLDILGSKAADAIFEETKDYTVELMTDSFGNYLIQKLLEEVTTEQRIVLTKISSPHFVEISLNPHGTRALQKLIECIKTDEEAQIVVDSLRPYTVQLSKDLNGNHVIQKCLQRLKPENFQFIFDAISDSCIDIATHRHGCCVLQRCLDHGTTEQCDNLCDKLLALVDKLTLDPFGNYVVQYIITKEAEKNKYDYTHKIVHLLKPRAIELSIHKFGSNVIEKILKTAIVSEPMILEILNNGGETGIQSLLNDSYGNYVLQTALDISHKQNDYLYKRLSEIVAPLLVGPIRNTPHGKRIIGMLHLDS
Assay: Mg; RNA-MaP; 20 mM Na-HEPES pH 7.4, 30 mM KOAc, 0.75 mM MgCl2, 0.1% Tween-20, 5% glycerol, 0.1 mg/mL BSA, 2 mM DTT; 25 C; 0.0125-409.6 nM protein
Settings: tags: N-His6-TEV cleaved; C-SNAP kept, Cy3B-labelled; label: tethered on chip by stalled RNA polymerase

UCUCUUUGUGUUUAUCUCUU (ssRNA) [Ib_S1_P3E.1_K3.1_C3.1_H3.1_[A4G]_A3.1_[A6T]_F3.1_T3.1]
Kd: 549 nM

UCUCUUUGUAUAUUUUCUCUU (ssRNA) [Ia_S1_P4E.1_K4.1_C4.1_H4.1_A4.1_F4.1_[A9T]_T4.1]
Kd: 4.51 nM

B1: Ic_S2_P4E.1_K4.1_C4.1_H4.1_A4.1_[T5C]_[A6G]_[T7C]_F4.1_[T8A]_[A9T]_T4.1 (ssRNA)
RNA: UUUGAUUAAUAUGAUAUCGUUCUUUCUUGUACGCAUUUCUUUCUCGAUAUCAUAUUAAUCUUU
Kd: 235 nM

B2: Ic_S2_P4E.1_K4.1_C4.1_H4.1_A4.1_[T5C]_[A6T]_[T7C]_F4.1_[T8G]_[A9C]_T4.1 (ssRNA)
RNA: B1 RNA with G33U, A35G, U36C
Kd: 879 nM

B3: Ic_S2_P4E.1_K4.1_C4.1_H4.1_A4.1_[T5C]_[A6C]_[T7C]_F4.1_[T8C]_[A9T]_T4.1 (ssRNA)
RNA: B1 RNA with G33C, A35C
Kd: 96.8 nM

B4: Ic_S2_P4E.1_K4.1_C4.1_H4.1_A4.1_[T5C]_[A6C]_F4.1_[T8G]_[A9T]_T4.1 (ssRNA)
RNA: B1 RNA with G33C, C34U, A35G
Kd: 28.4 nM

B5: Ic_S2_P4E.1_K4.1_C4.1_H4.1_A4.1_[T5C]_[A6G]_F4.1_[T8A]_T4.1 (ssRNA)
RNA: B1 RNA with C34U, U36A
Kd: 125 nM

B6: Ic_S2_P4E.1_K4.1_C4.1_H4.1_A4.1_[T5C]_[A6C]_[T7C]_F4.1_[A9G]_T4.1 (ssRNA)
RNA: B1 RNA with G33C, A35U, U36G
Kd: 20.2 nM

B7: Ic_S2_P4E.1_K4.1_C4.1_H4.1_A4.1_[T5C]_[A6T]_[T7A]_F4.1_[T8C]_T4.1 (ssRNA)
RNA: B1 RNA with G33U, C34A, A35C, U36A
Kd: 353 nM

B8: Ic_S2_P4E.1_K4.1_C4.1_H4.1_A4.1_[T5C]_[A6C]_F4.1_[A9G]_T4.1 (ssRNA)
RNA: B1 RNA with G33C, C34U, A35U, U36G
Kd: 14 nM

B9: Ic_S2_P4E.1_K4.1_C4.1_H4.1_A4.1_[T5C]_[A6G]_[T7C]_F4.1_[A9C]_T4.1 (ssRNA)
RNA: B1 RNA with A35U, U36C
Kd: 28.3 nM

B10: Ic_S2_P4E.1_K4.1_C4.1_H4.1_A4.1_[T5C]_[A6C]_[T7G]_F4.1_[T8C]_[A9C]_T4.1 (ssRNA)
RNA: B1 RNA with G33C, C34G, A35C, U36C
Kd: 736 nM

B11: Ic_S2_P4E.1_K4.1_C4.1_H4.1_A4.1_[T5C]_[A6C]_F4.1_[T8C]_T4.1 (ssRNA)
RNA: B1 RNA with G33C, C34U, A35C, U36A
Kd: 44.1 nM

B12: Ic_S2_P4E.1_K4.1_C4.1_H4.1_A4.1_[T5C]_[A6C]_[T7C]_F4.1_T4.1 (ssRNA)
RNA: B1 RNA with G33C, A35U, U36A
Kd: 1.46 nM

B13: Ic_S2_P4E.1_K4.1_C4.1_H4.1_A4.1_[T5C]_[A6G]_F4.1_[T8C]_T4.1 (ssRNA)
RNA: B1 RNA with C34U, A35C, U36A
Kd: 117 nM

B14: Ic_S2_P4E.1_K4.1_C4.1_H4.1_A4.1_[T5C]_[A6T]_[T7G]_F4.1_[T8C]_[A9C]_T4.1 (ssRNA)
RNA: B1 RNA with G33U, C34G, A35C, U36C
Kd: 467 nM

B15: Ic_S2_P4E.1_K4.1_C4.1_H4.1_A4.1_[T5C]_[A6C]_[T7A]_F4.1_[T8C]_T4.1 (ssRNA)
RNA: B1 RNA with G33C, C34A, A35C, U36A
Kd: 162 nM

B16: Ic_S2_P4E.1_K4.1_C4.1_H4.1_A4.1_[T5C]_[A6G]_F4.1_[A9T]_T4.1 (ssRNA)
RNA: B1 RNA with C34U, A35U
Kd: 19.6 nM

B17: Ic_S2_P4E.1_K4.1_C4.1_H4.1_A4.1_[T5C]_[A6T]_[T7C]_F4.1_[T8A]_[A9T]_T4.1 (ssRNA)
RNA: B1 RNA with G33U
Kd: 68.6 nM

B18: Ic_S2_P4E.1_K4.1_C4.1_H4.1_A4.1_[T5C]_[A6T]_[T7C]_F4.1_T4.1 (ssRNA)
RNA: B1 RNA with G33U, A35U, U36A
Kd: 0.967 nM

B19: Ic_S2_P4E.1_K4.1_C4.1_H4.1_A4.1_[T5C]_[A6C]_[T7A]_F4.1_[T8C]_[A9G]_T4.1 (ssRNA)
RNA: B1 RNA with G33C, C34A, A35C, U36G
Kd: 271 nM

B20: Ic_S2_P4E.1_K4.1_C4.1_H4.1_A4.1_[T5C]_[A6C]_[T7C]_F4.1_[T8G]_[A9G]_T4.1 (ssRNA)
RNA: B1 RNA with G33C, A35G, U36G
Kd: 844 nM

B21: Ic_S2_P4E.1_K4.1_C4.1_H4.1_A4.1_[T5C]_[A6C]_[T7C]_F4.1_[T8C]_[A9G]_T4.1 (ssRNA)
RNA: B1 RNA with G33C, A35C, U36G
Kd: 595 nM

B22: Ic_S2_P4E.1_K4.1_C4.1_H4.1_A4.1_[T5C]_[A6C]_[T7A]_F4.1_[T8A]_[A9T]_T4.1 (ssRNA)
RNA: B1 RNA with G33C, C34A
Kd: 20.6 nM

B23: Ic_S2_P4E.1_K4.1_C4.1_H4.1_A4.1_[T5C]_[A6C]_[T7C]_F4.1_[T8A]_[A9T]_T4.1 (ssRNA)
RNA: B1 RNA with G33C
Kd: 81.4 nM

B24: Ic_S2_P4E.1_K4.1_C4.1_H4.1_A4.1_[T5C]_[A6T]_[T7A]_F4.1_[T8A]_[A9C]_T4.1 (ssRNA)
RNA: B1 RNA with G33U, C34A, U36C
Kd: 519 nM

B25: Ic_S2_P4E.1_K4.1_C4.1_H4.1_A4.1_[T5C]_[A6C]_F4.1_[T8A]_[A9T]_T4.1 (ssRNA)
RNA: B1 RNA with G33C, C34U
Kd: 9.29 nM

B26: Ic_S2_P4E.1_K4.1_C4.1_H4.1_A4.1_[T5C]_[A6C]_[T7C]_F4.1_[A9T]_T4.1 (ssRNA)
RNA: B1 RNA with G33C, A35U
Kd: 14.4 nM

B27: Ic_S2_P4E.1_K4.1_C4.1_H4.1_A4.1_[T5C]_[A6C]_F4.1_[T8A]_[A9G]_T4.1 (ssRNA)
RNA: B1 RNA with G33C, C34U, U36G
Kd: 77.3 nM
